# Results published in paper PMC12700808.
# What was measured:
# [1] = target: FG repeat domain of 669 residues with non-charged spacers and 36 FSFG motifs; assay: partitioning into an FG phase (confocal laser scanning microscopy); as a1 but FG phases assembled from the SLFG or the FSFG repeat domain (stocks in 4 M guanidinium hydrochloride, diluted 50-fold)
# [2] = target: Nup98-type FG domain comprising 52 perfect 12-mer GLFG repeat units (prf.GLFG52x12); assay: FG phase partitioning assay
# [3] = target: Nup98-type FG domain comprising 52 perfect 12-mer GLFG repeat units (prf.GLFG52x12); assay: FG phase partitioning assay; remark: listed apart in the source
# [4] = target: Nup98-type FG domain comprising 52 perfect 12-mer GLFG repeat units (prf.GLFG52x12); assay: FG phase partitioning assay; remark: listed apart in the source
# [5] = fluorescence intensity at rim of FG particles
# [6] = fluorescence intensity in center of FG particles
# [7] = signal in center of FG particles
substance,measurement,setting,value
"20-nm pentamer-only spheres of CA A92E (CA P1A+G60A+G61P background), EGFP-labelled (complex)",fold reduction of partitioning against WT,[1],< 100 fold
"20-nm pentamer-only spheres of CA Q9E (CA P1A+G60A+G61P background), EGFP-labelled (complex)",fold reduction of partitioning against WT,[1],< 100 fold
"20-nm pentamer-only spheres of CA G94D (CA P1A+G60A+G61P background), EGFP-labelled (complex)",fold reduction of partitioning against WT,[1],< 100 fold
"20-nm pentamer-only spheres of CA H87Q (CA P1A+G60A+G61P background), EGFP-labelled (complex)",fold reduction of partitioning against WT,[1],< 100 fold
"conical CLPs (capsid-like particles) of wild-type CA (CA-P1A), filled with sinGFP4a Q9E",response,[2]; [5],26000
same,response,[2]; [6],3400
same,percent of parent,[3]; signal at rim of FG particles,89%
same,percent of parent,[3]; [7],13%
same,response,[4]; [5],24000
same,response,[4]; [6],3500
same,percent of parent,[4]; signal at rim of FG particles,120%
same,percent of parent,[4]; [7],14%
"CLPs of CA G89V, filled with sinGFP4a (complex)",fold partitioning against wild type,[1],4 fold
"conical CLPs (capsid-like particles) of wild-type CA (CA-P1A), filled with sinGFP4a P123E",response,[2]; [5],17000
same,response,[2]; [6],7400
same,percent of parent,[4]; signal at rim of FG particles,80%
